Experimental data reported in patent US20230002757A1 (ZHEJIANG NANOMAB TECHNOLOGY CENTER, published 2023).
Each block holds one binder with its values, some of them ahead of it.

Experiments:
[1] = biological target: T1, PD-1 protein (human, UniProt Q15116 25-167, limits assumed); experiment: ELISA, PD-1 coated
T1 construct: also called human PD-1
Protocol: 2 μg/ml of PD-1 protein is coated on 96-well plates overnight for ELISA binding assay. Recombinant VHH-FC proteins are added to the wells and allowed to stand for a period of time, then 1 μg/ml of HRP-conjugated anti-FC antibody is added as detection antibody and the assay reagents are added. The absorbance is read at 450 nm. Binding of nivolumab serves as a positive control and plates coated with BSA are used as the negative control group.

[2] = biological target: T1, PD-1 protein; experiment: blocking ELISA, PD-1 coated, competitor biotin PD-L1
Protocol: Each well of 96-well microtiter plates is coated with 2 μg/ml of PD-1 protein in PBS and blocked with 1% BSA. […]
The intensity of the developed color is measured at 450 nm. Wells with no added PD-1 and no added VHH-FC are negative and positive controls, respectively.

T1 sequence (Q15116 25-167 limits assumed): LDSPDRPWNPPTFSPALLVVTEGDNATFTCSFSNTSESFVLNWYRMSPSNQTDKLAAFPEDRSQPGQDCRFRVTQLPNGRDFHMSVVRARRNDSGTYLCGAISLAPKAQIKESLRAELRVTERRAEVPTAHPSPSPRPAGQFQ

OD450 at 0.002 µg/mL [1]: 0.03 OD450
OD450 at 0.02 µg/mL [1]: 0.03 OD450
OD450 at 0.2 µg/mL [1]: 0.03 OD450
OD450 at 2 µg/mL [1]: 0.04 OD450
OD450 of PD-L1 bound, antibody at 0.15 µg/mL [2]: 3.27 OD450
OD450 of PD-L1 bound, antibody at 0.61 µg/mL [2]: 3.28 OD450
OD450 of PD-L1 bound, antibody at 2.42 µg/mL [2]: 3.33 OD450
OD450 of PD-L1 bound, antibody at 9.75 µg/mL [2]: 3.27 OD450
B2: 504#SS8 (Fc fusion)
VHH: EVQVVESGGGLVQAGGSLRLSCTASGRTFSNYAMGWFRQAPGKEREFVASVTWGGSGTFYADSVKGRFTISRDNIKNTVYLQMNSLKPEDTAVYYCAADNVGDSWYSDDYKYWGQGTQVTVSS
notes: VHH-FC construct from HEK293 cells; not shown: The (G4S)3 linker leading to it is left out with it

OD450 at 0.002 µg/mL [1]: 0.14 OD450
OD450 at 0.02 µg/mL [1]: 0.93 OD450
OD450 at 0.2 µg/mL [1]: 2.77 OD450
OD450 at 2 µg/mL [1]: 3.06 OD450
OD450 of PD-L1 bound, antibody at 0.15 µg/mL [2]: 3.32 OD450
OD450 of PD-L1 bound, antibody at 0.61 µg/mL [2]: 3.28 OD450
OD450 of PD-L1 bound, antibody at 2.42 µg/mL [2]: 3.31 OD450
OD450 of PD-L1 bound, antibody at 9.75 µg/mL [2]: 3.27 OD450
B3: 504#SS28 (Fc fusion, not shown: a dimerising Fc or GST; small tags and cut ends)
VHH: QVQLVESGGGSVQPGGSLRLSCAVSGFTLDYYDIGWFRQAPGKERDWISCISSSDGSQYYADSVKDRFFISRDNAKNTVYLQMNSLEPGDTAVYYCAADFDTYRFCSGFGPDAYSSWGQGTQVIVSS
notes: VHH-FC construct from HEK293 cells

OD450 at 0.002 µg/mL [1]: 0.04 OD450
OD450 at 0.02 µg/mL [1]: 0.03 OD450
OD450 at 0.2 µg/mL [1]: 0.03 OD450
OD450 at 2 µg/mL [1]: 0.04 OD450
OD450 of PD-L1 bound, antibody at 0.15 µg/mL [2]: 3.22 OD450
OD450 of PD-L1 bound, antibody at 0.61 µg/mL [2]: 3.25 OD450
OD450 of PD-L1 bound, antibody at 2.42 µg/mL [2]: 3.27 OD450
OD450 of PD-L1 bound, antibody at 9.75 µg/mL [2]: 3.36 OD450
B4: 504#SS14 (Fc fusion, not shown: a dimerising Fc or GST; small tags and cut ends)
VHH: QVQLVESGGGLVQPGGSLRLSCVASGFTFSSYWMYWVRQAPGKGLEWVSAIDTTGGSTAYTHSVKGRFTISRDNARNTLYLQMNNLKSEDTAVYYCANSTYFNDDPEYDRWGQGTQVTVSS
notes: as for B3

OD450 at 0.002 µg/mL [1]: 0.19 OD450
OD450 at 0.02 µg/mL [1]: 1.22 OD450
OD450 at 0.2 µg/mL [1]: 2.91 OD450
OD450 at 2 µg/mL [1]: 3 OD450
OD450 of PD-L1 bound, antibody at 0.15 µg/mL [2]: 3.47 OD450
OD450 of PD-L1 bound, antibody at 0.61 µg/mL [2]: 3.31 OD450
OD450 of PD-L1 bound, antibody at 2.42 µg/mL [2]: 3.29 OD450
OD450 of PD-L1 bound, antibody at 9.75 µg/mL [2]: 3.28 OD450
B5: 504#SS23 (Fc fusion, not shown: a dimerising Fc or GST; small tags and cut ends)
VHH: QVQLVESGGGLVQPGGSLRLSCAASGFTFSSYVMSWVRQAPGKGLEWVSAINSGGSSSSYPESVKDRFTVSRDNAKNTLYLQMNSLKPEDTAVYFCAAKNVPGFYYSDYANHEYDYWGQGTQVTVSS
notes: as for B3

OD450 at 0.002 µg/mL [1]: 0.03 OD450
OD450 at 0.02 µg/mL [1]: 0.03 OD450
OD450 at 0.2 µg/mL [1]: 0.03 OD450
OD450 at 2 µg/mL [1]: 0.04 OD450
OD450 of PD-L1 bound, antibody at 0.15 µg/mL [2]: 3.42 OD450
OD450 of PD-L1 bound, antibody at 0.61 µg/mL [2]: 3.36 OD450
OD450 of PD-L1 bound, antibody at 2.42 µg/mL [2]: 3.46 OD450
OD450 of PD-L1 bound, antibody at 9.75 µg/mL [2]: 3.32 OD450
B8: 504#SS9 (Fc fusion)
VHH: EVQLQESGGGLVQAGGSLRLSCAASGRSFSGYAMAWFRQAPGKEREFVAAVNWNGGSTYYADSVKGRFTISRDNAKDTVYLQMNSLKPEDTAVYYCNARPTFGAYYSDYKSGVDYWGQGTQVTVSS
notes: as for B2

Second part, the binder before the results:

B1: 504#SS2 (Fc fusion)
VHH: EVQVVESGGGLVKTGDSLRLSCAASGGTISGYEMGWFRQAPGKEREFVAGISRNGRSTGYSDSAKDRFTISRDNAKNTVYLQMNSLKPEDTAVYYCAAGLKADYGDSYVDTSTRNYNYWGQGTQVTVSS
notes: as for B2
OD450 at 0.002 µg/mL [1]: 0.59 OD450
OD450 at 0.02 µg/mL [1]: 2.25 OD450
OD450 at 0.2 µg/mL [1]: 3.12 OD450
OD450 at 2 µg/mL [1]: 3.1 OD450
OD450 of PD-L1 bound, antibody at 0.15 µg/mL [2]: 3.34 OD450
OD450 of PD-L1 bound, antibody at 0.61 µg/mL [2]: 3.23 OD450
OD450 of PD-L1 bound, antibody at 2.42 µg/mL [2]: 3.31 OD450
OD450 of PD-L1 bound, antibody at 9.75 µg/mL [2]: 3.31 OD450

B6: 504#SS5 (Fc fusion)
VHH: QVQLVESGGGSAQAGGSLRLSCTASGRPFSIYDMGWFRQAPGKERESVAVINLSRGNTYYADSVKGRFTISLDSAKNTVYLQMNSLKPEDTAVYSCGVDRRQYGLGIPPLADYWGQGTQVTVSS
notes: as for B2
OD450 at 0.002 µg/mL [1]: 1.56 OD450
OD450 at 0.02 µg/mL [1]: 2.79 OD450
OD450 at 0.2 µg/mL [1]: 3.18 OD450
OD450 at 2 µg/mL [1]: 3.06 OD450
OD450 of PD-L1 bound, antibody at 0.15 µg/mL [2]: 3.18 OD450
OD450 of PD-L1 bound, antibody at 0.61 µg/mL [2]: 1.65 OD450
OD450 of PD-L1 bound, antibody at 2.42 µg/mL [2]: 0.14 OD450
OD450 of PD-L1 bound, antibody at 9.75 µg/mL [2]: 0.08 OD450

B7: 504#SS30 (Fc fusion, not shown: a dimerising Fc or GST; small tags and cut ends)
VHH: EVQLVETGGGLVQAGGSLRLACEVSGRTFSSYAMGWFRQAPGREREFVASIRVSGGITDYADSVKGRFTISRDNAKDTVYLQMINLKPEDTAVYYCNADISRYRFSRGDYWGKGTLVTVSS
notes: as for B3
OD450 at 0.002 µg/mL [1]: 0.04 OD450
OD450 at 0.02 µg/mL [1]: 0.03 OD450
OD450 at 0.2 µg/mL [1]: 0.03 OD450
OD450 at 2 µg/mL [1]: 0.04 OD450
OD450 of PD-L1 bound, antibody at 0.15 µg/mL [2]: 3.33 OD450
OD450 of PD-L1 bound, antibody at 0.61 µg/mL [2]: 3.26 OD450
OD450 of PD-L1 bound, antibody at 2.42 µg/mL [2]: 3.29 OD450
OD450 of PD-L1 bound, antibody at 9.75 µg/mL [2]: 3.28 OD450
